Results published in US20100303808A1 (published 2010).
Positions count from the first letter of the chain named.

T1: human CD20 (human, UniProt P11836 1-297)
T1 construct: whole, on cells; also called human B-lymphocyte-restricted differentiation antigen; Bp35
T1 sequence (looked up): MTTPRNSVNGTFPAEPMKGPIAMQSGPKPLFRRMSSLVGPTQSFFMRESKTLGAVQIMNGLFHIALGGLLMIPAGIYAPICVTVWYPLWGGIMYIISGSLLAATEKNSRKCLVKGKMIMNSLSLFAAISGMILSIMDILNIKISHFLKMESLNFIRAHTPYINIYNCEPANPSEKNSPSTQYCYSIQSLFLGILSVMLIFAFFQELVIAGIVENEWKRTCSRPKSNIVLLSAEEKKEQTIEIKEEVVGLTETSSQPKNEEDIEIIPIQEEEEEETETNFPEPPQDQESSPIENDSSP

B1: chimeric antibody c1F5 (c1F5VH x c1F5VK) (antibody, human IgG1, kappa, V domains shown)
VH: QVQLRQPGAELVKPGASVKMSCKASGYTFTSYNMHWVKQTPGQGLEWIGAIYPGNGDTSYNQKFKGKATLTADKSSSTAYMQLSSLTSEDSAVYYCARSHYGSNYVDYFDYWGQGTLVTVST
VL: QIVLSQSPAILSASPGEKVTMTCRASSSLSFMHWYQQKPGSSPKPWIYATSNLASGVPARFSGSGSGTSYSLTISRVEAEDAATYFCHQWSSNPLTFGAGTKVEIKR
notes: Mouse 1F5 variable regions on human gamma1 / kappa constant regions; also called chimeric 1F5
B2: 1F5RHA x 1F5RKB11 (antibody, human IgG1, kappa, V domains shown)
VH: QVQLVQSGAEVKKPGASVKVSCKASGYTFTSYNMHWVRQAPGQRLEWIGAIYPGNGDTSYNQKFKGRVTVTRDTSANTAYMELSSLKSEDTAVYYCARSHYGSNYVDYFDYWGQGTLVTVSS
VL: EIVLTQSPSSLSASVGDRVTITCRASSSLSFMHWYQQKPGKAPKPWIYATSNLASGVPSRFSGSGSGTDYTLTISSLQPEDFATYFCHQWSSNPLTFGGGTKVEIKR
notes: also called RHA x RKB11; Variant D
B3: 1F5RHA x 1F5RKB12 (antibody, human IgG1, kappa, V domains shown)
VH: B2 VH
VL: EIVLTQSPGTLSLSPGERATLSCRASSSLSFMHWYQQKPGQAPRPWIYATSNLASGIPARFSGSGSGTDYTLTISRLEPEDFAVYFCHQWSSNPLTFGQGTKVELKR
notes: also called RHA x RKB12; Variant F
B4: 1F5RHA x 1F5RKG11 (antibody, human IgG1, kappa, V domains shown)
VH: B2 VH
VL: B2 VL with W46L, Y70F, F86Y
notes: also called RHA x RKG11; 1F5RKG11 x 1F5RHA
B5: 1F5RHA x 1F5RKF12 (antibody, human IgG1, kappa, V domains shown)
VH: B2 VH
VL: B3 VL with W46L, Y70F
notes: also called RHA x RKF12; 1F5RKF12 x 1F5RHA
B6: rituximab (antibody, V domains shown)
VH: QVQLQQPGAELVKPGASVKMSCKASGYTFTSYNMHWVKQTPGRGLEWIGAIYPGNGDTSYNQKFKGKATLTADKSSSTAYMQLSSLTSEDSAVYYCARSTYYGGDWYFNVWGAGTTVTVSA
VL: QIVLSQSPAILSASPGEKVTMTCRASSSVSYIHWFQQKPGSSPKPWIYATSNLASGVPVRFSGSGSGTSYSLTISRVEAEDAATYYCQQWTSNPPTFGGGTKLEIK
B7: chimeric c1F5VH x 1F5RKB12 (antibody, human IgG1, kappa, V domains shown)
VH: B1 VH
VL: B3 VL
notes: IgG1 kappa from HEK293T conditioned medium
B8: 1F5RHA x chimeric c1F5VK (antibody, human IgG1, kappa, V domains shown)
VH: B2 VH
VL: B1 VL
notes: IgG1 kappa from HEK293T conditioned medium; also called chimeric VK x 1F5RHA
B9: chimeric c1F5VH x 1F5RKB11 (antibody, human IgG1, kappa, V domains shown)
VH: B1 VH
VL: B2 VL
notes: IgG1 kappa from HEK293T conditioned medium; also called chimeric VH x 1F5RKB11
B10: 1F5RHB x chimeric c1F5VK (antibody, human IgG1, kappa, V domains shown)
VH: B2 VH with V68A, V70L, R72A, T74K
VL: B1 VL
notes: 1F5RHB is 1F5RHA with four back mutations

Each binder was assayed against T1, human CD20 (assay: dissociation of DyLight 488-labelled antibody from Raji cells at 37 C in excess unlabelled antibody, FACS MFI; Study 2).
Set-up: unit not given here
Description: (§1) All antibodies were conjugated to a fluorescein-like fluorophore, DyLight 488, according to vendor instructions (Pierce Cat. No. 53025). Following conjugation, labeled antibody was separated from free dye using chromatography columns provided in the labeling kit. […] Purified labeled antibodies were stored at 4° C. in PBS protected from light.
(§2) To measure antibody dissociation from cells, 10⁶ Raji cells were suspended in PBS containing 1% bovine serum albumin (PBS/BSA). Labeled antibody was added to a final concentration of 5 ug/ml in a volume of 1.0 ml. Following a 30 minute incubation at 37° C., unlabeled (“cold”) antibody was added to a final concentration of 1000 ug/ml. Labeled cells mixed with cold antibody were returned to 37° C. for 4 hours. At 20-minute intervals, 100 ul aliquots of cells were withdrawn from each sample, 400 uL cold PBS/BSA containing propidium iodide was added and mean fluorescence intensity (MFI) of the cell population excluding dead cells (PI⁺) determined by FACS.

| Binder | Half-life (dissociation from Raji cells) |
| --- | --- |
| B1 | 57 |
| B2 | 59 |
| B3 | 64 |
| B4 | 63 |
| B5 | 65 |
| B6 | 24 |

What follows are binders tested against T1, human CD20 (assay: ELISA on fixed Raji cells (CD20+), anti-human kappa detection).
Description: Raji cells (80 μl; 1-2×10⁶ cells/ml in 24 ml with fresh growth medium diluted with 0.11 vol of 10×PBS (MPBS) and 8 ml 8% paraformaldehyde (in PBS)) were added to 96-well poly-D-lysine-coated plate and centrifuged at 2500 rpm (Beckman 6L) at 25° C. for 60 minutes. The pellets were washed 4 times with 400 μl PBS, Tween 20 (0.02% v/v). 50 μl of MPBS was added to each well after the final wash, and incubated for 1 hour at room temperature, and the blocking buffer was then discarded. Serial dilutions of the 1F5 antibodies were prepared in MPBS in a separate 96-well plate, transferred to the Raji-cell coated plate and incubated at room temperature for 1 hour. The antibody solution was then discarded and the plates were washed 6 times with 400 μl PBS buffer. Goat anti-human kappa (Sigma A7164) was prepared by diluting the stock antibody solution 1:2000 in MPBS, added to the washed wells, and incubated again at room temperature for 1 hour. The plates were again washed 6 times in 400 μl PBS buffer. 100 μl of K-blue TMB solution was added to each well. The reactions were stopped by added 50 μl red stop after 30 minutes, and the absorbance was read at 650 nm.

| Binder | binding result |
| --- | --- |
| B7 | binds |
| B8 | binds |
| B9 | binds |
| B10 | binds |

What follows are binders tested against T1, human CD20 (assay: dissociation of DyLight 488-labelled antibody from Raji cells at 37 C in excess unlabelled antibody, FACS MFI; average of Studies 1 and 2).
Set-up: unit not given here
Description: as §1, §2

| Binder | Half-life (dissociation from Raji cells), average |
| --- | --- |
| B1 | 58 |
| B2 | 52 |
| B3 | 68 |
| B4 | 65 |
| B5 | 66 |
| B6 | 24 |

Each binder was assayed against T1, human CD20 (assay: dissociation of DyLight 488-labelled antibody from Raji cells at 37 C in excess unlabelled antibody, FACS MFI; Study 1).
Set-up: unit not given here
Description: as §1, §2

| Binder | Half-life (dissociation from Raji cells) |
| --- | --- |
| B1 | 59 |
| B2 | 44 |
| B3 | 72 |
| B4 | 67 |
| B5 | 67 |
| B6 | 24 |

These binders were tested against T1, human CD20 (assay: cell-based or functional assay).

| Binder | complement dependent cytotoxicity (CDC) on Raji cells, relative to rituximab [times less than rituximab] |
| --- | --- |
| B4 | ~10 |

Molecular target: T1, human CD20
Experiment: cell-based or functional assay
Remark: another data set of the same source

| Binder | LogEC50, complement dependent cytotoxicity (CDC) on Raji cells |
| --- | --- |
| B1 | -0.781 |
| B2 | -1.06 |
| B3 | -1.13 |
| B4 | -0.773 |
| B5 | -1.15 |
| B6 | -1.73 |
